Measurements taken from US20030143644A1.

Legend:
cytoskeleton [1] = assay: cell-based or functional assay
cytoskeleton [2] = assay: immunoblot densitometry of the detergent insoluble pellet, resting cells
cytoskeleton [3] = assay: immunoblot densitometry of the detergent insoluble pellet, TCR ligated against non-ligated
cytoskeleton [4] = assay: immunoblot densitometry of the pellet after anti-αβTCR plus GAM ligation, thymocytes
cytoskeleton [5] = assay: immunoblot densitometry of the pellet after anti-αβTCR plus GAM ligation, lymph node T cells

TCR-ζ, sequence (P24161 22-164 limits assumed): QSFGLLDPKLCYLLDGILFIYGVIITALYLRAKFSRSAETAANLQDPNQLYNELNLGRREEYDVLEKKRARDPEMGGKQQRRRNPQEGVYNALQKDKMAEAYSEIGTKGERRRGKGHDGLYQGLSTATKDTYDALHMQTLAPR

Row | IL-2 production (fold less IL-2 than wild-type CD8/ζ) (cytoskeleton [1]) | percent of TCR-ζ in the detergent insoluble pellet (resting thymocytes and lymph node T cells) (cytoskeleton [2]) [%] | fold increase in the pellet against non-ligated samples (lymph node T cells) (cytoskeleton [3]) [fold] | fold increase in the pellet against non-ligated samples (thymocytes) (cytoskeleton [3]) [fold] | percent of TCR-ζ in the detergent insoluble pellet (activated thymocytes) (cytoskeleton [4]) [%] | percent of TCR-ζ in the detergent insoluble pellet (activated lymph node T cells) (cytoskeleton [5]) [%] | Substance
1 | 40 |  |  |  |  |  | CD8/ζD67-126 (from UniProt P01731 28-217; P24161 52-164) (receptor)
2 | 100 |  |  |  |  |  | CD8/ζY153E (from UniProt P01731 28-217; P24161 52-164) (receptor)
3 |  | 7 | 6 | 2 | 16 | 43 | TCR-ζ (from UniProt P24161 22-164) (receptor)
